The series can be described thus: protease stability score; higher = more stable; yeast display proteolysis, trypsin and chymotrypsin.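 Note: relative to predicted unfolded state with 0 unfolded-like and 1 meaning tenfold more protease.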
Consider “DELEETAERMMKQFTDMWRTGDEEYFWRLADPHVRVNIDGVTRIGREESSEMFERWIRHIRLKSVHIEEVEIQGEKSHSDGRLNEIVDGKEEIVHVTINLIVINGRIHSVEFERE”, for which the protease stability score turned out to be 0.765. The figure for “DELEEVIQKVAEMWVRLYKTGNEEIIHKLADPDVRAVYNGVENIGMHRHVELLHRLLEEIRIHDIRINRIEVQGEKAHNDTQVHFIVGEKRETRETHIEIVVVNGVIKEVVIRIH” is 0.629; for “DELEEYLKRLAKEILELMQTGDEDRWMKLADPNVRIDVNGVELHGRETWVERMEDILREIRSEYRIRHVHSQGNWARVDGELDIKVNGRIIRHKTEFIVVTVNGRIREEKFHIR” it is 0.335; for “DELEHDAREYFRILEESIRTGDEDLFRKLADPNVRLMIDGKNWIGWESYHEELRQYDHRHVDMRIDHIEVVDGRVHIDGRIEVTITIDGVEHRLNHKLRVEIEKIDGRWHMKFILVE” it is 1.67. The figure for “DELEHFALKFAEEWLQHYLTGNEEMISKLHDPHVKLHIGDKDLIGWEKFEEFLRETLSRVDHLHFNIRSVQSQGNKIVFDGKYIVIQGDKRYEFDIEFHIVVFNGRVHRIHYESH” is 1.58; for “DELEHFLLEILRELAHALETGDEERLTDLIDPHARINVDGVEIHGMDHWRELLHQIRFSIEDMHITHVEVQGDKIIIHGRVHVSNEVDGVENRSETHEIWYMKKFDGRWRVTTIEVK” it is 1.3; for “DELEHHLFELMEKMIKARLTGDEETLHRLADPDTRIEVGEFEFHGREHWVRFVRELDERIKNIRFEIRLRRYETVGNKIHIDIELRYHQGDKEEHHRTEWILIVFNGRLKSIQIVLH” it is 1.81. Then “DELEHIERRYWHLFVRALETGDEERLDRLVDPHARLDWNGREIVGREHLRHYLSHMRIVIEHHHIKDVNIQGEKIDSDIHLVLTMHVGDKDLEIRTDARSIHLKIDGKWLIESHKIK”, with 0.966; and “DELEHLANEWMKRVIHHLETGDEESWMKYADPNVRTEINIGDKTEERHGRERYIDFIRRLGFDHVHIHDQRIHHVNGVLFIHLNIKIKQGDYLFTSELDIIVRKIDGQWFVRSINIKVD”, with 0.601. “DELEHLERQLAEEILEDFMTGNEENFDHLADPNVKHDINGVEIIGREHYVEWWRRIKNVKIELKRYHIIGDKATIDGHEVFEGRRHKMILELDIVNGQIKRVRFELR” returned a protease stability score of 0.986. “DELEHLLREFFRLWKTAVETGDFRMLLELADPHVKQHIGDKTFVGWERLIESIERIVHEMRITEVTFTQVQVQGDYAHVDLRVFSEVGDKHLILKVELFLLKVNGRWVLESLRVE” had a protease stability score of 1.62. Then “DELEHMVRLLLKIWIHALITGDEELMMDQADPNVRLIIGDKIHHGMETFEEWVHQFKNLTVKHIVLRHTHYQGNKARIVGHLDIEINGRHHRLQTEIVIHKFNGKWYISDLRFD”, with 0.646; and “DELEHRSQEAIEHIVHSMQTGNEEEIERNMDPNARIRVGNYHLHGRKEAVRWFNFFLTELRIHDIHIHDVKSQGEWIHIDGHIRGQINGQEHSVRTHIIVYKINGKWHDTSYHLS”, with 0.723; and “DELEHWAHIILEEFTRLYTTGDEETFNHLADPDTRLFFNGREFIGREKFIDAWRHLRYKEIRLRDHQVDVQGDKMRMILHMRVNSNINGREVEQDVHLEILTKKIDGRWRLKEVHFQTH”, with 2.39. The figure for “DELEKAIHHILKELLEARLTGDWQMVIDRFDPHVLLRVGDKEFHGREIIRHLHEQFDHVEHVDLRLENHRYQGNKIHLDIKTTMDVRVGEKRVELRTESRIILLKVNGRWIIESVEIN” is 2.02; for “DELEKAMRTAVELFRHLIETGDEEFMQRLADPHTQLIVGDKTFHGRDHVVHEWEKFKNVKYRFEDVEFQGDKIILHSTLEFDGRRLETHIQLHKINGRWLLKRVEIK” it is 1.39. Then “DELEKDARKLFEMIYRMLKTGDEDHFLRLADPDVRVHQGDKEIHGMDISKQIVEDLGIQKIEVHVHKVEIQGDKVDITGEVNWNGQNINLIVYTEKVNGKWRIHSVELH”, with 1.61. On to “DELEKDLKDAFRILIEEVKTGDFKSMRRNMDPDARIDIGDKHSVGREEAIHLMEIFYKEWRFEHIDLHDFTLIGNKLELDMRVHGNVDGVRTIVIRRVISEKIDGRWLIRTESIE”, for which the protease stability score turned out to be 0.494.

The sequence “DELEKFIKYVATRLVHDWMTGDEETSKKLLDPHYKTRILYDGRYTELHGREIFVKFVRELLEEIRIHLEVDRIRPIGDKVLLDTRLEIRIGDKRIERSTELHYVVINGRVDQMELVFI” came in with a protease stability score of 1.32. Then “DELEKHLIHLAEIFIHNKLTGDEEELQRFMDPSVRTIVGEFHYHGRELVTEWLRREWEEMRIHEIHITHVRFQGDKVIIEGRLDIEVNGRRVDTHALIILVVVDGVMKSVKFEII”, with 1.23; and “DELEKIVEDFLRVLLEHLHTGNWEYLKEYFDPDVRIKIGDKELHGREDFVRRLREWLSRIKNATFEIEVDDNKVQGDKAILHTKVIIRVGDKLIELKTHIIVNKINGVWMVRSQSVE”, with 1.46; and “DELEKLLEHMLRLMNELLETGDWDWIMSLADPHTKFRLDINGVEHIDHGWEFLHKRIEELGADHREFRVRDIHTQGDKVHSEGEHLIRVNGKEIHIDVRIILLVVNGKVKEIEVRFK”, with 1.7.

“DELEKLLKLAMEMSLKLFETGDEESLHRLIDPHVRMEIVQGDKFIELHGREDVVRAMKEFRKKFPNLKVELEDHDIQGDKVIWHSVIHVGDKELELIIISLKFDGRWVLESVELKHR” gave a protease stability score of 1.4.

“DELEKLLRYWLREFFDALLTGDEEIFTRYMDPEARLIVDGVEYHGREEVLKHLRDKLREIRIKDYVIHSLDFVNGRIHVDVRQDVVIGEKREKTRLHIHIDVIDGKNHELDIEWR” displayed a protease stability score of 2.1. In turn, “DELEKVMHDMADLILHLYLTGDWETFLELADPNVKITIGDKEHHGWKSWKRLLEEELRRVDHIDSKLKRVIAIGDKAHVDGHMEINVNGREYRLDVHIIYVIVNGRHKEIEIHSE” had a protease stability score of 1.31. Then “DELEKYVLDMVMLWIRSHSTGDEDALRRLADPHTRVIINGKELHGMDDVRRHIEEIRIHEEHVHVERVEIQGNKAIVDTSRHIWIDFNGQNIRVDVKTRFHLEKIDGVWYLKEVRIG”, with 1.4; and “DELELHAEEMYEIWIKLEETGDWEIMLELADPNTKVTWNGVRIHGMEHYLERHHREHRKIKNITTHFILRDIDVIGNKSHVDGEVEIRVNGKTIILRVHFDNVVIDGRFKSHRVIVK”, with 1.03.

In the case of “DELEQLAREVWETLRRAELTGDENRIHEMLDPNVRVDINGRESHGWDSFIYLLRELRFEDMHERDYRIRDVNGRLEITVTGDLEGEFNGKHFNRHTVIIIILEKYDGRWKVHEVKIELR”, the protease stability score stood at 2.19. Then “DELEQWVKHALEIWVRSLHTGDEDNLSELVDPNVRIDVNGQELHGRELVLHFLSHMRVHIIITRDREIQGNKAIMHLEVHHHQGDKEIHFRFDLIFHKYDGRWRLTEIRIE”, with 1.03; and “DELERDSRRVMEKLLEILYTGNFDELRKLFDPNVITHIDGRHIHGMHITIRELLRIQEELGYEFVEARMTSTHHQGDKLYVHLEYRIGDKTTRFFWFITKIDGRWWITEMRFE”, with 1.4; and “DELERDVKQVWDLLLESSRTGDEEVLDKMLDPNARMKVNGQESHGRHAVELLSERIDHIHHIEIERFRTQGNKIEIDIHIDGEVNGRRIRTHMHVIIRKIDGRWFVESWEMK”, with 0.931. Then “DELERILKEQAETIMHFWRTGDEESFNHMADPDYWLRVGDKNVHGREKASEYLRHWLEHIRIHDVKIRDKRVFNGRVFIDMREDGNVDGKRTTRTLHVIIVSIDGKITMVEIRLE”, with 0.996; and “DELERLAVETIHRFWHSLTTGNEKVLDELLDPNVRVHYNGKDIIGMEHFLKEISEIWRHVEDIKFTDNRVQGEKIRVHGHVDVKEEFDGRKIKIHTRVDYVVHKINGVWVVQSIKIH”, with 1.05.

(Values after the NTF2 design screens of Basanta et al. (2020).)
